PMC10113271 (2023)
Where no end group is shown, it is not given here. The star is where a group is joined. FITC = O=C1OC2(c3ccc(O)cc3Oc3cc(O)ccc32)c2ccc(NC(=S)*)cc21; βAla = NCCC(=O)O

Target: KIX domain of CREB-binding protein (residues 586–672 of mouse CBP) (mouse, UniProt P45481 586-672)
Experiment: FP

Chain of KIX domain of CREB-binding protein (residues 586–672 of mouse CBP) (P45481 586-672): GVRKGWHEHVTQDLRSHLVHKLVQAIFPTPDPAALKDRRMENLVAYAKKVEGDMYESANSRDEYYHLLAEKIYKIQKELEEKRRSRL

## {FITC-βAla}-GYNDEDPEKEKRIKELELLLMSTENELKGQQAL [FITC-labeled c-Myb TAD peptide]
  Kd: 59 nM
